Measurements published in publication PMC9770967, “Native holdup (nHU) to measure binding affinities from cell extracts” (Science Advances, 2022).

Target: biotinylated PDZ-binding motif (PBM) peptide of diacylglycerol kinase zeta (DGKZ)
Test: native holdup (nHU) with Western blot; titration; biotinylated DGKZ PBM peptide on streptavidin resin as bait, mixed with biotin-saturated control resin at constant resin/analyte ratio; total Jurkat extract (2 mg/ml) as analyte; 4°C, 2 hours; prey depletion in the supernatant read by Western blot; apparent constants; three replicates

pKapp (negative logarithm of the apparent dissociation constant): 6.4 pKapp
Substance: endogenous full-length Scribble (SCRIB) (from UniProt Q14160 1-1655) (natural protein)
